This note sets out measurements from patent US11433139B2, “Peptide vaccines against interleukin-31” (Zoetis Services LLC, priority 2018, dated 2022).

The target in assay [1] is feline IL-31. Description: Affinity of anti-IL-31 antibodies by surface plasmon resonance (Biacore), feline IL-31 surface. In kind it is binding. The note with it: IL-31 conjugated to the surface (FIG. 2). Here is the method: (§1) The affinity with which candidate mAbs bind canine and feline IL-31 was determined using surface plasmon resonance (SPR) on a Biacore system (Biocore Life Sciences (GE Healthcare), Uppsala, Sweden). To avoid affinity differences associated with differential surface preparation that can occur when immobilizing antibodies to surfaces; a strategy was employed where IL-31 was directly conjugated to the surface. Immobilization was obtained by amine coupling 5 μg/mL IL-31 using N-hydroxysuccinimide (NHS)/1-Ethyl-3-(3-dimethylaminopropyl) carbodiimide (EDC) chemistry. Chips were quenched with ethanolamine and the affinity with which all candidate mAbs bound to the immobilized IL-31 was evaluated. All curves were fit to a 1:1 model. Affinity constants (KD) less than 1×10^−11M (1E-11 M) are below the lower limit of quantitation of detection for the instrument. Results for affinity measurements are described herein.
Background: Surface plasmon resonance follows binding to a sensor surface in real time, without labels.
Target sequence in this assay (as listed by the source): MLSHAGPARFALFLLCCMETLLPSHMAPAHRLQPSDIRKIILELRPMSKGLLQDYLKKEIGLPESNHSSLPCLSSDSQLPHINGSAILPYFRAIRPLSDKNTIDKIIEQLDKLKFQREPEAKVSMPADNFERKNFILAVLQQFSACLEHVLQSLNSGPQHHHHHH

In assay [2] the target is canine IL-31. The experiment in a line: Affinity of anti-IL-31 antibodies by surface plasmon resonance (Biacore), canine IL-31 surface. In kind it is binding. The note with it: IL-31 conjugated to the surface (FIG. 2). The method, then:
as §1

For assay [3], the system named is feline IL-31. Description: Inhibition of feline IL-31 induced pSTAT3 signaling in feline FCWF4 macrophage-like cells. In kind it is cell-based. The conditions noted are these: for potency (IC50) against feline IL-31 in feline FCWF4 cells: 0.2 μg/mL feline IL-31, pSTAT3, FCWF4 cells (FIG. 3). Here is the method:
(§2) To identify candidates with inhibitory activity, antibodies were assessed for their ability to affect IL-31-mediated STAT3 phosphorylation in either a canine or feline cell-based assay. STAT3 phosphorylation was determined in canine DH-82 (ATCC® CRL-10389™) or feline FCWF4 macrophage-like cells (ATCC CRL-2787). DH82 and FCWF4 cells were primed with canine interferon gamma (R&D Systems, Minneapolis, Minn.) at 10 ng/mL for 24 hours or feline interferon gamma (R&D Systems, Minneapolis, Minn.) at 125 ng/mL for 96 hours, respectively, to increase receptor expression. Both cell types were serum starved for 2 hours prior to IL-31 and mAb treatment. Using two independent methods, all candidate mAbs were evaluated for their ability to inhibit either 1 μg/mL canine or 0.2 μg/mL feline IL-31 induced STAT3 phosphorylation. […] To ensure complex formation, a one hour co-incubation of mAb and IL-31 cytokine prior to cell stimulation was completed. IL-31 cell stimulation was carried out for five minutes. STAT3 phosphorylation was measured using AlphaLISA SureFire ULTRA™ technology (Perkin Elmer, Waltham, Mass.). In the case where antibody concentration and purity are unknown, hybridoma supernatants were qualitatively measured for their ability to inhibit STAT3 phosphorylation following a 1 hour co-incubation with […] IL-31. The potency of individual monoclonal antibodies defined by their ability to inhibit IL-31 mediated STAT3 phosphorylation in these assays was considered the key selection criteria for further advancement of select antibodies. The term potency refers to the IC50 value calculated from these assays and is the concentration of the antibody where signaling induced by IL-31 is reduced to one half its maximal value.

The target in assay [4] is T1, canine IL-31 (Canis lupus familiaris, UniProt A0A8I3S3D1).
T1 construct: made in house; host or cells: CHO cells (CHROMOS ACE system)
T1 sequence (A0A8I3S3D1 24-159): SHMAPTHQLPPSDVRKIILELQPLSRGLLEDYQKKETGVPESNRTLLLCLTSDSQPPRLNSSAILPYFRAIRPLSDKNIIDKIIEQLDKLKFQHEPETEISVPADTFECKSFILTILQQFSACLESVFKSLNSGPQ
The experiment in a line: Inhibition of canine IL-31 induced pSTAT3 signaling in canine DH-82 and feline FCWF4 cells. The note with it: canine IL-31; canine and feline cell types, cell type of the values not specified. It counts as cell-based. Here is the method:
as §2

Assay [5] relates to feline IL-31. Description: IL-31 induced pruritus model in cats, antibody pre-bound to feline IL-31. In kind it is in vivo, cat. The method, then:
To test the preliminary efficacy of mouse: feline 11E12 chimera, mouse: feline 15H05 chimera, and felinized 11 E12 (Feline 11E12 1.1), an IL-31 induced pruritus model in cats was developed. Following an intravenous dose of 0.5 μg/kg feline IL-31 (SEQ ID NO: 159; Feline_IL-31_E_coli), the corresponding nucleotide sequence for which is (SEQ ID NO: 160; Feline_IL-31_E_coli), cats will portray transient pruritic behavior that includes (but is not limited to) licking, chewing, scratching, and head or body shaking. Rubbing up against the cage was not considered a pruritic activity. Pruritic observations take place by a trained investigator for 30 minutes prior to administration of the IL-31 protein and for 1 hour following. For this study, a baseline challenge with feline IL-31 was performed up to 1 month prior to dosing with antibody. On day zero, a 0.5 mg/kg antibody dose was combined with 0.5 μg/kg of feline IL-31 at room temperature for 60 minutes prior to injecting the pre-bound complex into each animal. A “no mAb” control was included for a control. The dose of mAb represents a gross molar excess of antibody to cytokine. Pruritic activity was monitored as described on days 0, 7, and 21.
Target sequence in this assay (as listed by the source): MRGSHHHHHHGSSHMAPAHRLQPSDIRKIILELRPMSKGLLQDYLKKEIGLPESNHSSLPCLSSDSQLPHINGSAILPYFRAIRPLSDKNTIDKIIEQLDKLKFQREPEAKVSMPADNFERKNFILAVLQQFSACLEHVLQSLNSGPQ

Assay [6] relates to equine IL-31. Description: Biacore binding, single test concentration of antibody, equine IL-31 surface. The method, then:
For the indirect ELISA, binding (ELISA OD) to wildtype feline IL-31 and a feline IL-31 15H05 mutant which had mutations in the monoclonal antibody 15H05 epitope region was assessed. To confirm binding, biacore analysis was performed using canine, feline, equine, human, the feline 15H05 mutant, and feline 11E12 mutant IL-31 proteins as surfaces and a single test concentration of antibody. The feline IL-31 11E12 mutant had mutations in the monoclonal antibody 11E12 epitope region.
For the indirect ELISA method, antibody binding to wildtype and feline IL-31 15H05 mutant proteins was assessed. […] In comparison, the 11E12 antibody bound to the wild-type feline IL-31 and its binding was not impacted by the mutations in the 15H05 epitope region as evidenced by the data in FIG. 4. To confirm binding, biacore analysis was performed using canine, feline, equine, human, feline 15H05 mutant, and feline 11E12 mutant IL-31 proteins as surfaces and a single test concentration of antibody. Similar to ELISA observations, all antibodies tested bound to wildtype feline IL-31. In agreement with the data described above in this section, mouse antibodies 11 E12 and 15H05 both bound to canine and feline IL-31 surfaces. […] From this group of nine fully canine antibodies, only ZIL1 and ZIL9 cross-reacted with equine IL-31. Of note, antibody 15H05 was the only one of all assayed herein that bound to canine, feline, and equine IL-31 indicating some level of epitope conservation across the three species. In contrast, none of the antibodies described herein bound to human IL-31. Additional biacore surfaces were used to verify ELISA observations showing differential binding of antibodies to wildtype feline IL-31 and two proteins with mutations in the 15H05 (15H05 mutant) or 11 E12 (11E12 mutant) epitopes. […] Differing results can be attributed to differences in the two assay methodologies.

The test system of assay [7] is feline IL-31. The experiment in a line: Inhibition of feline IL-31 induced pSTAT3 signaling in canine DH-82 cells. In kind it is cell-based. The conditions noted are these: feline IL-31, pSTAT3, canine DH82 cells (FIG. 3). Here is the method:
as §2
Target sequence in this assay (as listed by the source): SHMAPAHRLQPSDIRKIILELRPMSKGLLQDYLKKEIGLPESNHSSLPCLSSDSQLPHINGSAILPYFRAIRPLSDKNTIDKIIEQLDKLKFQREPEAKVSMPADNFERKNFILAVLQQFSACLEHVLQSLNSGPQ

Setting [8] is: 0.5 mg/kg antibody pre-bound with 0.5 μg/kg feline IL-31, days 0, 7, 21.

Sequence of canine IL-31 (as listed by the source): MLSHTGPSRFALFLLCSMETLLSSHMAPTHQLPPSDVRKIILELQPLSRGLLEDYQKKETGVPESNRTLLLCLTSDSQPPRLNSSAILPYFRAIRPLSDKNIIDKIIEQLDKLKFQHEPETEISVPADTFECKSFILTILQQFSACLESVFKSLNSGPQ
Sequence of equine IL-31 (as listed by the source): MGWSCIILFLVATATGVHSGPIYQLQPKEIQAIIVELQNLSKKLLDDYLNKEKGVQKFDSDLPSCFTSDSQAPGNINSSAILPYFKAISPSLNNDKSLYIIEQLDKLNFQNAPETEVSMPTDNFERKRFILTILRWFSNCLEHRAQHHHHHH

B1: mouse: feline 15H05 chimera: mouse 15H05 variable regions on feline IgG constant regions (antibody)
heavy: QVQLQQSAAELARPGASVKMSCKTSGYTFTSYTIHWIKQRPGQGLEWIGNINPTSGYTENNQRFKDKTTLTVDRSSNTAYLQLHSLTSEDSAVYFCARWGFKYDGEWSFDVWGAGTTVTVSSASTTAPSVFPLAPSCGTTSGATVALACLVLGYFPEPVTVSWNSGALTSGVHTFPAVLQASGLYSLSSMVTVPSSRWLSDTFTCNVAHPPSNTKVDKTVRKTDHPPGPKPCDCPKCPPPEAAGAPSIFIFPPKPKDTLSISRTPEVTCLVVDLGPDDSDVQITWFVDNTQVYTAKTSPREEQFNSTYRVVSVLPILHQDWLKGKEFKCKVNSKSLPSPIERTISKAKGQPHEPQVYVLPPAQEELSRNKVSVTCLIKSFHPPDIAVEWEITGQPEPENNYRTTPPQLDSDGTYFVYSKLSVDRSHWQRGNTYTCSVSHEALHSHHTQKSLTQSPGK
light: DIQMNQSPSSLSASLGDTITVTCRASQGISIWLSWYQQKPGNIPKVLINKASNLHIGVPPRFSGSGSGTHFTLTITSLQPEDIATYYCLQSQTYPLTFGGGTKLEINRSDAQPSVFLFQPSLDELHTGSASIVCILNDFYPKEVNVKWKVDGVVQNKGIQESTTEQNSKDSTYSLSSTLTMSSTEYQSHEKFSCEVTHKSLASTLVKSFQRSECQRE
On to B1, for which the “affinity (KD) to feline IL-31” value in assay [1] is listed as “lost some affinity”. Moreover, the “affinity (KD) to canine IL-31” value in assay [2] is “lost some affinity”. In addition, in assay [3] (feline IL-31 induced pSTAT3 signaling in feline FCWF4 cells), the “fold increased IC50 relative to mouse: feline 11E12 chimera” value was “approximately 2 fold”. The “IC50 against canine IL-31” value in assay [4] turned out to be 28.61 µg/mL. The “pruritus scores compared to placebo control” value in assay [5] (setting [8]) is “significant improvement (p<0.05)”.

B2: ZIL9: fully canine anti IL-31 antibody, VH SEQ ID NO: 83, VL SEQ ID NO: 85 (antibody, listed as Canis familiaris, V domains shown)
VH: EVQLVESGGDLVKPPGSLRLSCVASGFTFSSYDMTWVRQAPGKGLQWVADVNSGGTGTAYAVAVKGRFTISRDNAKKTLYLQMNSLRAEDTAVYYCAKLGVRDGLSVWGQGTLVTVSS
VL: SSVLTQPPSVSVSLGQTATISCSGESLNEYYTQWFQQKAGQAPVLVIYRDTERPSGIPDRFSGSSSGNTHTLTISGARAEDEADYYCESAVDTGTLVFGGGTHLAVL
With B2, in assay [6], the “binding to equine IL-31 (Biacore)” value was “cross-reacted”.

B3: mouse: feline 11E12 chimera: mouse 11E12 variable regions on feline IgG constant regions (antibody)
heavy: QVQLQQSGAELVKPGASVKLSCKASGYTFKYYDINWVRQRPEQGLEWIGWIFPGDGGTKYNETFKGKATLTTDKSSSTAYMQLSRLTSEDSAVYFCARGGTSVIRDAMDYWGQGTSVTVSSASTTAPSVFPLAPSCGTTSGATVALACLVLGYFPEPVTVSWNSGALTSGVHTFPAVLQASGLYSLSSMVTVPSSRWLSDTFTCNVAHPPSNTKVDKTVRKTDHPPGPKPCDCPKCPPPEAAGAPSIFIFPPKPKDTLSISRTPEVTCLVVDLGPDDSDVQITWFVDNTQVYTAKTSPREEQFNSTYRVVSVLPILHQDWLKGKEFKCKVNSKSLPSPIERTISKAKGQPHEPQVYVLPPAQEELSRNKVSVTCLIKSFHPPDIAVEWEITGQPEPENNYRTTPPQLDSDGTYFVYSKLSVDRSHWQRGNTYTCSVSHEALHSHHTQKSLTQSPGK
light: DIVLTQSPASLAVSLGQRATISCRASESVDNYGISFMHWYQQKPGQPPKLLIYRASNLESGIPARFSGSGSRTDFTLTINPVETDDVATYYCQQSNKDPLTFGAGTKLELKRSDAQPSVFLFQPSLDELHTGSASIVCILNDFYPKEVNVKWKVDGVVQNKGIQESTTEQNSKDSTYSLSSTLTMSSTEYQSHEKFSCEVTHKSLASTLVKSFQRSECQRE
With B3, the “affinity (KD) to feline IL-31” value in assay [1] is reported as “slightly superior”. In assay [2], the “affinity (KD) to canine IL-31” value was “slightly superior”. Besides, the “pruritus scores compared to placebo control” value in assay [5] (setting [8]) is reported as “did not achieve a significant reduction in pruritus at any timepoint”.

B4: Feline 11E12 1.1: felinized 11E12, FEL_11E12_VH1 paired with FEL_11E12_VL1 (antibody, V domains shown)
VH: QVLLVQSGAEVKKPGASVKIFCKASGYSFTYYDINWLRQAPEQGLEWMGWIFPGDGGTKYNETFKGRLTLTADTSTNTVYMELSSLRSADTAMYYCARGGTSVIRDAMDYWGQGALVTVSS
VL: EIQMTQSPSSLSASPGDRVTITCRASESVDNYGISFMHWYQQKPGKVPKLLIYRASNLESGVPSRFSGSGSGTDFTLTISSLEPEDAATYYCQQSNKDPLTFGQGT
Take B4: the “affinity (KD) to feline IL-31” value in assay [1] was “loss of affinity”. Moreover, in assay [2], the “affinity (KD) to canine IL-31” value is “loss of affinity”. Also, the “potency (IC50) against feline IL-31 in feline FCWF4 cells” value in assay [3] is given as “loss of potency”; in assay [3] (listed as Felinized 11E12 1.1), “approximately a two-fold decrease in potency”. In addition, the “potency (IC50) against feline IL-31 in canine DH82 cells” value in assay [7] was “loss of potency”. In addition, the “pruritus scores compared to placebo control” value in assay [5] (0.5 mg/kg antibody pre-bound with 0.5 μg/kg feline IL-31, days 0, 7, 21, 0.5 mg/kg) is recorded as “did not reduce pruritus at day zero”; in assay [5] (0.5 mg/kg antibody pre-bound with 0.5 μg/kg feline IL-31, days 0, 7, 21, listed as feline 11E12 1.1, 0.5 mg/kg) it was “lack of efficacy”.
